Experimental data reported in publication PMC2791412.

Target: BIQ, fluorescent reporter containing an IQ domain sequence derived from neuromodulin (UniProt P17677)
Assay: other fluorescence titration

Sequence of BIQ, fluorescent reporter containing an IQ domain sequence derived from neuromodulin (P17677 31-60): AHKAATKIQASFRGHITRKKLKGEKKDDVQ

“calmodulin (native vertebrate CaM) (from UniProt P0DP23 1-149) (natural protein)” was tested, and the stoichiometry N was 1.
